bromoacetamide scaffold with biotin = not defined here

Holding throughout (assay): immunoprecipitation with HCDR3 construct, number of peptides identified by mass spectrometry
Experiment [1] addresses 78 kDa glucose-regulated protein (mouse) (UniProt P20029).
In experiment [2] the target is Heat shock cognate 71 kDa protein (mouse) (UniProt P63017).
The target of experiment [3] is T1, Succinate--CoA ligase [ADP-forming] subunit beta, mitochondrial (mouse) (UniProt Q9Z2I9).
T1 sequence (looked up): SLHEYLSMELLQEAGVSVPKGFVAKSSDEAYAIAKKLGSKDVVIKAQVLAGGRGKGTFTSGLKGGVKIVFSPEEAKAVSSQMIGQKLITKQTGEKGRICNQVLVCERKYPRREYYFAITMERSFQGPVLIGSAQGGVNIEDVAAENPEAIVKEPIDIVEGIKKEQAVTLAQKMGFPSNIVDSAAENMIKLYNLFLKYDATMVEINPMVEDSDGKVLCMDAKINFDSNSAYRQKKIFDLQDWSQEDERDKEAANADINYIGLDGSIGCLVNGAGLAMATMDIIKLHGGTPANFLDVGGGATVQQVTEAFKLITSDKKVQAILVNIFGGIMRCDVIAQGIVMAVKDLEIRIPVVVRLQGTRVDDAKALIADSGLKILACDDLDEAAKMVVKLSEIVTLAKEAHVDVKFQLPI

Experiment [4] has as its target T2, citrate synthase, mitochondrial (mouse) (UniProt Q9CZU6).
T2 sequence (looked up): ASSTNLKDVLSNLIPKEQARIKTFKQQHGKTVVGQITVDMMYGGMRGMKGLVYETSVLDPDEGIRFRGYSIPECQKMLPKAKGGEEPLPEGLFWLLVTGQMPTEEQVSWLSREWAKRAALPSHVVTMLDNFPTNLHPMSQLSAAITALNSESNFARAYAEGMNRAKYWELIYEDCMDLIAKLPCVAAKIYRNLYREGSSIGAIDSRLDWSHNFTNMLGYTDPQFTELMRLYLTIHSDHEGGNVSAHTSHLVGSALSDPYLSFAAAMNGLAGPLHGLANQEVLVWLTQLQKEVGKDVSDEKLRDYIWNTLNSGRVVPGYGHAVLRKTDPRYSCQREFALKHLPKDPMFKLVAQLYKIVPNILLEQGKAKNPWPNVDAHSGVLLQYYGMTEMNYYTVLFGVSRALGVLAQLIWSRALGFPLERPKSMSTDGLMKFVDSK

78 kDa glucose-regulated protein (mouse), sequence (P20029 20-655 limits assumed): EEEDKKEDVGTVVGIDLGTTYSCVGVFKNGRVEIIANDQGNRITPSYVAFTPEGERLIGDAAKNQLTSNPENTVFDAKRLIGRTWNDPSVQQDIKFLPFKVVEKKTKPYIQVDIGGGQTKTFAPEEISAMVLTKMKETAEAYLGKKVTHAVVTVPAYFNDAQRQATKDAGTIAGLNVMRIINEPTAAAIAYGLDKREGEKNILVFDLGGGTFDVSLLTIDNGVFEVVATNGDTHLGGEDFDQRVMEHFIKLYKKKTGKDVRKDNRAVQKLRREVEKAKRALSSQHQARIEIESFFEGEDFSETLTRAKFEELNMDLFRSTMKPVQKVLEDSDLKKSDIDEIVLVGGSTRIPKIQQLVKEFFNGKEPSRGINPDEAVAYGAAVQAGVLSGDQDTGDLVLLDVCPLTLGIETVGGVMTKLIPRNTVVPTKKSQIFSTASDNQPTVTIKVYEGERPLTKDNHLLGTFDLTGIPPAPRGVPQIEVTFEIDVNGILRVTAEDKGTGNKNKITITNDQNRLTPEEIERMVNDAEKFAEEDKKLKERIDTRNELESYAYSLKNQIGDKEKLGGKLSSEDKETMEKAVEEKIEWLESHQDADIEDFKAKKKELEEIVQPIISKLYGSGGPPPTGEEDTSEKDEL
Heat shock cognate 71 kDa protein (mouse), sequence (P63017 2-646 limits assumed): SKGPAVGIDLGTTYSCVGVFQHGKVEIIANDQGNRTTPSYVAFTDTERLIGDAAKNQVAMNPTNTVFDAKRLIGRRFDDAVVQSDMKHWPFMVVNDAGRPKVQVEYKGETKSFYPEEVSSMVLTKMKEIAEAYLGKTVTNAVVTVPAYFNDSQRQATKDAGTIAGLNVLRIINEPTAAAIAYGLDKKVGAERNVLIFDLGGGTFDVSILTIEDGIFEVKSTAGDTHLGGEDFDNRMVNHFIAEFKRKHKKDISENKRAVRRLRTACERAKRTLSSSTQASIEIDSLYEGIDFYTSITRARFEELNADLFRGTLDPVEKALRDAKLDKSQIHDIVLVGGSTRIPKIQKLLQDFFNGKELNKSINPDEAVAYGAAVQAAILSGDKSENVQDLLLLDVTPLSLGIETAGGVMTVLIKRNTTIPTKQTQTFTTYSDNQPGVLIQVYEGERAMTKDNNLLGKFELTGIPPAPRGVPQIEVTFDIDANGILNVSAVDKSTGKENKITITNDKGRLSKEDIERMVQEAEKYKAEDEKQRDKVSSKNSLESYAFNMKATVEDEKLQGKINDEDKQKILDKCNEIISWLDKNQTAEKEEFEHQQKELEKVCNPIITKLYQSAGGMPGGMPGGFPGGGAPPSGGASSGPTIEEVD

B1: subacute-1 construct (SA1), biotinylated cyclic HCDR3 construct (peptide, part only; not given: biotin scaffold, part only)
peptide: Ac-TDLAVAHPVRY-NH2
modifications: linker (positions not given here) via bromoacetamide scaffold with biotin; reading uncertain; also: biotinylated bromoacetamide scaffold cyclization, attachment sites not given here
As to B1, the # Peptides in experiment [1] and in experiment [2] was 6 peptides in each case.

B2: Acute-2 construct (A2), biotinylated cyclic HCDR3 construct (peptide, part only; not given: biotin scaffold, part only)
peptide: Ac-SLYGSSRHTAPISF-NH2
modifications: linker (positions not given here) via bromoacetamide scaffold with biotin; reading uncertain; also: biotinylated bromoacetamide scaffold cyclization, attachment sites not given here
Consider B2, for which the # Peptides in experiment [3] worked out at 4 peptides; in experiment [4] it was 3 peptides.

The values are drawn from US20220268788A1.
